Assay results taken from patent US20190298850A1.

Target: IL-21 (human) (UniProt Q9HBE4)
Test: cell-based or functional assay

Chain of UniProt Q9HBE4 (Q9HBE4 25-162 limits assumed): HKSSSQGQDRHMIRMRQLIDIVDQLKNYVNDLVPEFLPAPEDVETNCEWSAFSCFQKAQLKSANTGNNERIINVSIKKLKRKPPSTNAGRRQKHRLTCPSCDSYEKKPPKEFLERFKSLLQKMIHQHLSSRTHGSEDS

decrease in plasma cell differentiation of memory B cells co-cultured with blood PD-1hi CXCR5+ or PD-1hi CXCR5- CD4+ T cells: 90%
Substance: IL-21R-Ig fusion protein (from UniProt Q9HBE5 20-232) (Fc fusion)
